Target: NEIL1 DNA glycosylase (Homo sapiens (; the 390 aa …, UniProt Q96FI4)
Test: two-hybrid

Sequence of NEIL1 DNA glycosylase (Homo sapiens (Q96FI4 whole entry): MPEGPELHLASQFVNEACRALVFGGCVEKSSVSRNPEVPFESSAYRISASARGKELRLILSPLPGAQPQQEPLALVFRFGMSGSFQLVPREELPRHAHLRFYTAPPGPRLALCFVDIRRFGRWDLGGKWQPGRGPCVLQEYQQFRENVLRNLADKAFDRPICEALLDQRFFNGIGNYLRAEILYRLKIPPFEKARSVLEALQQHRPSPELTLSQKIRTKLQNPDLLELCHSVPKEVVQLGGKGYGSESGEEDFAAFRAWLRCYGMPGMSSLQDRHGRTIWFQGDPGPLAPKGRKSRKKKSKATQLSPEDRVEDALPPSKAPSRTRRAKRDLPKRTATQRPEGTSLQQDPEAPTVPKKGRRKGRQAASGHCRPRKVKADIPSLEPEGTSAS

binding result: binds
B1: A5 nanobody (anti-NEIL1 nanobody) (VHH)
VHH: EVQLQASGGGFVQPGGSLRLSCAASGATSERDIMGWFRQAPGKEREFVSAISYEPGGWHYYADSVKGRFTISRDNSKNTVYLQMNSLRAEDTATYYCAWQEIMYGEAYWRYWGQGTQVTVSS
